The values that follow come from PMC4854285.

pKd: −log10 of the molar value.

The target of the test is biotinylated peptide composed of residues 656-683 of the gp41 MPER (RRR-…-RRK-biotin) (HIV-1). The experiment in a line: SPR. On the technique in general: SPR reads the build-up and loss of mass on a sensor chip optically.

By pKd is commonly meant the Kd on a negative log10 scale, so that one unit is a factor of ten. Lower therefore signals a high Kd. For 10E8 antigen-binding fragment (Fab), the pKd was 7.77.
